According to PMC12038025:

Columns and labels:
[1] = biological target: CELSR1 extracellular region, CADH1 through GAIN domains (residues 255-2477) (mouse) (UniProt O35161); assay: SEC-MALS
[2] = system: O35161; assay: SEC-MALS

| stoichiometry N [1] | Substance | percent dimer in the main peak [2] |
| --- | --- | --- |
| 2 | CELSR1 extracellular region, CADH1 through GAIN domains (residues 255-2477), O35161 255-2477 |  |
|  | CELSR1 extracellular region, CADH1 through GAIN domains (residues 255-2477) | roughly 60% dimer |
